Article PMC10267556 (Nature Communications, 2023)

Tests used:
Test in all cases: SPR
Settings in all cases: both partners purified
RBD (BA.4/5) = target: T1, RBD (BA.4/5) (SARS-CoV-2, Omicron BA.4/5, strain)
T1 construct: source: bought: Sino Biological

Spike (BA.1) = target: T2, Spike (BA.1) (SARS-CoV-2, Omicron BA.1, strain)
T2 construct: source: bought: Sino Biological

Spike (BA.4/5) = target: T3, Spike (BA.4/5) (SARS-CoV-2, Omicron BA.4/5, strain)
T3 construct: source: bought: Sino Biological

RBD (BA.1) = target: T4, RBD (BA.1) (SARS-CoV-2 Omicron BA.1, strain)
T4 construct: source: bought: Sino Biological

Spike (XBB) = target: T5, Spike (XBB) (SARS-CoV-2, Omicron XBB, strain)
T5 construct: source: bought: Sino Biological

Spike (XBB.1.5) = target: T6, Spike (XBB.1.5) (SARS-CoV-2, Omicron XBB.1.5, strain)
T6 construct: source: bought: Sino Biological

[1] = target: SARS-CoV-2 Omicron XBB spike protein (SARS-CoV-2 Omicron XBB, strain)
[2] = target: SARS-CoV-2 Omicron XBB.1.5 spike protein (SARS-CoV-2 Omicron XBB.1.5, strain)

Binder	Kd (RBD (BA.4/5))	Kd (Spike (BA.1))	Kd (Spike (BA.4/5))	Kd (RBD (BA.1))	Kd (Spike (XBB))	Kd (Spike (XBB.1.5))	Kd [1]	Kd [2]
TH003 (antibody, V domains shown, IgG1 (D2:p3)) VH: EVRLLESGGGLVQPGGSLRLSCAASGFTFNDYAMSWVRQAPGEGLEWVSTISYSGGSTYYADSVKGRFTISRDNSKNMLYLQMNSLRAEDTALYYCANGVATADWYFDLWGRGTLVTVSS VL: QSALTQPRSVSGSPGQSVTISCTGTSSDVGGYNYVSWFQHHPGKAPKLMIYDVTDRPSGVPDRFSGSKSGNTASLTISGLQAEDAADYYCCSYAGTYTVFGGGTKLTVL	0.484 nM	2.55 nM	1.59 nM	1.29 nM	–	–	–	–
TH236 (antibody, V domains shown, IgG1 (D2:p3)) VH: QVQLVESGGGLVKPGGSLRLSCAASGFMISDSYMNWIRQPPGKGLEWVSYISSNGYAIYYGDSVKGRFTISRDNAKNFLYLQMNSLRVEDTAVYYCAREQPGGYYDSSGYRLDPWGQGILVTVSS VL: QSALTQPASVSGSPGQSITISCTGTSSDVGGYNYVSWYQQHPGKAPKLMIYDVSNRPSGVSNRFSGSKSGNTASLTISGLQAEDEADYYCSSYTSSSTLYVFGTGTKVTVL	0.621 nM	0.0867 nM	0.602 nM	0.3 nM	–	–	–	–
TH272 (antibody, V domains shown, IgG1 (D2:p3)) VH: QITLKESGPTLVKPTQTLTLTCTFSGFSLSTGGVSVGWIRQPPGKALEWLALIYWDDDKRYSPSLESRLTITKDTSKNLVVLTLTNMDPVDTATYYCAHKTIPTIFDYWGQGTLVTVSS VL: QSALTQPASVSGSPGQSITISCTATSSDVGAYQYVSWYQQYPGKAPKLMIYEVSKRPSGVSNRFSGSKSGNTASLTISGLQAEDDAYYYCNSYTTSSVVFGGGTKLTVL	0.045 nM	1.33 nM	0.000976 nM	0.296 nM	–	–	–	–
TH132 (antibody, V domains shown, IgG1 (D2:p3)) VH: EVQLVESGGGLVQPGGSLRLSCAASGITVSRNYMSWVRQAPGKGLEWVSVMFAGGSTFYADSVKGRFTISRDNSKNTLYLQMNSLRAEDTAVYYCARDLGVVGATDYWGQGTLVTVSS VL: not shown	0.484 nM	1.26 nM	0.00171 nM	0.726 nM	1.34 nM	1.09 nM	–	–
TH132 monoclonal antibody (IgG) (antibody, V domains shown, copies: 2 + 2) VH: EVQLVESGGGLVQPGGSLRLSCAASGITVSRNYMSWVRQAPGKGLEWVSVMFAGGSTFYADSVKGRFTISRDNSKNTLYLQMNSLRAEDTAVYYCARDLGVVGATDYWGQGTLVTVSS VL: not shown	–	–	–	–	–	–	~1 nM	~1 nM
TH281 (antibody, V domains shown, IgG1 (D2:p3)) VH: EVQLVESGGGLVQPGGSLRLSCAASEITVSRNYMSWVRQAPGKGLEWVSVMFAGGSTFYADSVKGRFTISRDNSKNTLYLQMNSLRAEDTAVYYCARDLGVVGATDYWGQGTLVTVSS VL: not shown	0.00781 nM	0.517 nM	–	0.119 nM	–	–	–	–
TH027 (antibody, V domains shown, IgG1 (D2:p3)) VH: QITLKESGLTLVRPTQTLTLTCTFSGFSLINSGVGVGWIRQPPGKALEWLALIYWDDDKRYNPSLRSRLTISKATSKNQVVLTMTNMDPVDTATYYCTHRGPGHNTPIYFEFWGQGALVTVSS VL: QSVLTQSPSASGTPGQRVTISCSGSRSNIGSNFVYWFHQLPGTAPKLLIHSNDQRPSGVPDRFSGSNSGTSASLAISGLRSEDEADYYCAAWDDSLSSWVFGGGTKLTVL	0.752 nM	7.06 nM	1.86 nM	0.838 nM	–	–	–	–
